Test [1] deals with murine OX40 expressed on cells (CHOK1-mOX40) (murine) (UniProt P47741). Briefly: flow cytometry on CHOK1-mOX40 cells. (Flow cytometry measures light scatter and fluorescence of single cells or particles in a stream.)
Test [2] deals with murine VISTA expressed on EL4 cells (EL4-mVISTA) (murine) (UniProt Q9D659). Kind of test: flow cytometry on EL4-mVISTA cells.
The target in a further test is hOX40-His (human) (UniProt P43489). Briefly: SPR (BioRad ProteOn XPR 360) per Example 5; FIG. 5 legend says biolayer interferometry (Octet); hOX40-His as ligand, analyte at 66.7 nM.
Sequence of hOX40-His (human) (P43489 29-216 limits assumed): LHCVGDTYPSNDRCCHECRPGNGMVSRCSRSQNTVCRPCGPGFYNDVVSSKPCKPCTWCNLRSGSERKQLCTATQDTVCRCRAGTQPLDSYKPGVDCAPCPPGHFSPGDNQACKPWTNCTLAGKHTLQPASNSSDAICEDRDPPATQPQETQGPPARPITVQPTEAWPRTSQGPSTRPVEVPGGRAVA

pEC50, pKd: −log10 of the molar value.

Sequence of murine VISTA expressed on EL4 cells (EL4-mVISTA) (murine) (Q9D659 33-308): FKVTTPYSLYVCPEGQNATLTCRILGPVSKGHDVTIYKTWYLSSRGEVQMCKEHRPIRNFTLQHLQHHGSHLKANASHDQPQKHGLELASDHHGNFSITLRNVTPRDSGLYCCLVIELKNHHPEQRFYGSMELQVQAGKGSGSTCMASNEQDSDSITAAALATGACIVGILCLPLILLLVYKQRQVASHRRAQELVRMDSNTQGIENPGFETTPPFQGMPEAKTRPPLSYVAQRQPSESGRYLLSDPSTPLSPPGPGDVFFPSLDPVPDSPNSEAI
Sequence of murine OX40 expressed on cells (CHOK1-mOX40) (murine) (P47741 20-272): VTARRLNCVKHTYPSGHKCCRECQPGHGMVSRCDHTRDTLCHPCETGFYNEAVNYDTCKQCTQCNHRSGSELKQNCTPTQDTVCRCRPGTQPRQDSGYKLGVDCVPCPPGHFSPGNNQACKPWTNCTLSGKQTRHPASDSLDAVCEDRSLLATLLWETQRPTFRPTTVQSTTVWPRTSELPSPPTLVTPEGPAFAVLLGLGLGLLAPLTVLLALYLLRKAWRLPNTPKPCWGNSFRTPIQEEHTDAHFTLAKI

As usually defined, the pEC50 is the EC50 on a negative log10 scale, so that one unit is a factor of ten. Read a high pEC50 as a low EC50. In the case of “murine VSIG8-Fc-OX40L chimeric protein (from UniProt Q6P3A4 22-262; P43488 51-198) (Fc fusion)”, the negative-log EC50 (pEC50) in test [1] was 7.80; in test [2], 7.25.
For orientation: pKd means the negative decadic logarithm of the Kd, by convention in mol/L. The low end stands for a large Kd, the high end for a small Kd. What is called koff is the rate constant with which the complex falls apart. One may read the kon as a measure of how fast the partners come together. Take “tavolixumab (an anti-human OX40 antibody)”: in the test with hOX40-His (human), the negative-log Kd (pKd) was 9.82, the koff came out at 5.03e-05 s⁻¹ and the on-rate (kon) was 332000 M⁻¹ s⁻¹.

For the origin of these results see patent US20200071378A1.
